Experimental data published in patent publication US20120308580A1 (NATIONAL UNIVERSITY OF SINGAPORE, published 2012).

B1: E183/A2 mAb (antibody, V domains shown)
VH: QVQLQQPGAEFVKPGASVRLSCKASGYTFSSYWMHWVKQRPGQGLEWIGEIDPSDSYTNYNQKFKGKATLTVDKSSSTAYMQFSSLTSEDSAVYYCATSGYDVGVDYWGQGTTLTVSS
VL: DIQMTQSPASLSASVGETVTITCRASENIYSYLAWYHQKQGKSPQLLVYIAKTLAEGVPSRFSGSGSGTQFSLKIDSLQPEDVGSYYCQHHYGTPYTFGGGTKLEIK
notes: also called HBe183-191 antibody; antibody against HBe183-191
B2: c18/A2 mAb (antibody, V domains shown)
VH: QVQLQQSGPELVKPGASVKISCKASGHTFTSYDINWVKQRPGQGLEWIGWIYPGDGSTKYNEKFKGKATLTADKSSSTAYMQLSSLTSENSAVYFCARRDYGYSYAMDYWGQGTSVTVSS
VL: DIQMTQSPASLSTSVGETVTITCRASGNIHNYLAWYQQKQGKSPQLLVYNAKTLADGVPSRFSGSGSGTQFSLKINSLQPEDFGSYYCQHFWSTPFTFGSGTKLEIK
notes: also called HBc18-27 antibody

Experiments:
[1] = target: T1, HBc19-27I peptide / HLA-A201 complex on T2 cells (human; Hepatitis B virus); assay: flow cytometry, peptide pulsed T2 cells (FIG. 8A, peptides of Table 4)
T1 construct: whole, on cells

[2] = target: T2, HBV pol, 455-463 peptide / HLA-A201 complex on T2 cells (human; Hepatitis B virus); assay: as above
T2 construct: whole, on cells

[3] = target: T3, FEC11 (EBV) peptide / HLA-A201 complex on T2 cells (human; EBV); assay: as above
[4] = target: T4, HBV env183-191 peptide / HLA-A201 complex on cells (human; Hepatitis B virus)
[5] = target: T4, HBV env183-191 peptide / HLA-A201 …; remark: listed apart in the source
[6] = target: c18-27 peptide alone (free, not on HLA-A2) (Hepatitis B virus); assay: pre-incubation with free peptide, then flow cytometry on the specific target
[7] = target: T2, HBV pol, 455-463 peptide / HLA-A201 …; assay: flow cytometry, peptide pulsed T2 cells
[8] = target: T3, FEC11 (EBV) peptide / HLA-A201 complex …; assay: flow cytometry, peptide pulsed T2 cells
[9] = target: T5, Mage3, 271-279 peptide / HLA-A201 complex on T2 cells (human); assay: flow cytometry, peptide pulsed T2 cells
T5 construct: whole, on cells; also called Mage3-271-79

[10] = target: T6, HBV env, 348-357 peptide / HLA-A201 complex on T2 cells (human; Hepatitis B virus); assay: flow cytometry, peptide pulsed T2 cells
T6 construct: whole, on cells

Row | Binder | binding result [1] | binding result [2] | binding result [3] | EC50 (read off the curve) [4] | binding result [5] | binding result [6] | binding result [7] | binding result [8] | binding result [9] | binding result [10]
1 | B1 | no binding (tested: 1 µM peptide; 0.5 µg mAb) | no binding (tested: 1 µM peptide; 0.5 µg mAb) | no binding (tested: 1 µM peptide; 0.5 µg mAb) | ~0.01 µg | – | – | – | – | – | –
2 | B2 | no binding (tested: 1 µM peptide; 0.5 µg mAb) | – | – | – | no binding (tested: 0.5 ug mAb in 50 ul) | no binding (tested: 1 uM) | no binding (tested: 1 µM peptide; 0.5 µg mAb) | no binding (tested: 1 µM peptide; 0.5 µg mAb) | no binding (tested: 1 µM peptide; 0.5 µg mAb) | no binding (tested: 1 µM peptide; 0.5 µg mAb)
